Laboratory results reported in the nanobody polyreactivity screen of Harvey et al. (2022).

Assay: yeast display, Sf9 membrane polyspecificity reagent, FACS + sequencing; frameworks hold sequencing errors
Outline: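 A nanobody's polyreactivity label depends on the gate it was sorted from. Yeast display cells were stained with 10% biotinylated, detergent-solubilized Sf9 membrane reagent for 1 hour at 4 °C, enriched on streptavidin microbeads and sorted by FACS. The low and high (top ~1%) gates were set on anti-HA fluorescence for expression and streptavidin fluorescence for reagent binding.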

Sequence | polyreactivity (PSR sort gate)
QVQLVESGGGLVQAGGSLRLSCAASGYIFDRNSMGWYRQAPGKERELVAAITKRGGITYYADSVKGRFTISRDNAKNTVYLQMNSLKPEDTAVYYCNALARSSRYDYWGQGTQVTVSS | high polyreactivity
QVQLVESGGGLVQAGGSLRLSCAASGYIFDRYAMGWYRKAPGKEREMVAPISGRGGSTYYADSVKGRFSISRDNAKNTVFLQMNSLKPEDTAVYYCARDVYVRNGQRARYVSWGQGTQVTVSS | high polyreactivity
QVQLVESGGGLVQAGGSLRLSCAASGYIFDYNAMGWYRQAPGKERELVAAITFRDGSTYADSVKGRFTISRDNAKNTVYLQMNSLKPEDTAVYYCNRRSQVHSHSKHDYWGQGTLVTVSS | low polyreactivity
QVQLVESGGGLVQAGGSLRLSCAASGYIFERNAMGWYRQAPGKERELVAAITDDGDDTYYADSVKGRFTISRDNAKNTVFLLMNSLKPEDTAVYYCAKDLYYGDYYYWGQGTQVTVSS | low polyreactivity
QVQLVESGGGLVQAGGSLRLSCAASGYIFERYAMGWYRPAPGKERELVAAISSGGGRTYYADSVKGRFTISRDNAKNPVYLQMNSLQPEDTAVYYCAADHWWISSYWGQGTQVTVSS | high polyreactivity
QVQLVESGGGLVQAGGSLRLSCAASGYIFEVNTMGWYIQAPGKERELVAAITSGGTTYYADSVKGRFTISRDNAKNTVYLQMNSLKPDDTAVYYCAALWSRRRSRPRFDYWGQGTQVTVSS | high polyreactivity
QVQLVESGGGLVQAGGSLRLSCAASGYIFEYYAMGWYRQAPGKERELVAAISWSGGSTYYADSVKGRFTISRDNAKNTVYFQLNSLKPVDTAVYYCAAEYVTYQQGLWGYDYWGQGTQVTVSS | low polyreactivity
QVQLVESGGGLVQAGGSLRLSCAASGYIFGFYAMGWYRQAPGKERELVSRITYSGTSTYYADSVKGRFTISRDNAKNTVYLQMNSLKPEDTAVYYCATDFVRHAGWRRYDYWGQGTQVTVSS | low polyreactivity
QVQLVESGGGLVQAGGSLRLSCAASGYIFGGNAMGSYRPAPGNPRELVAAISSSSGGTYYADSVKGRFTISRDNAKNTVYLQMNSLKPEDTAVYYCAAAPVDYEYDYWGQGTQVTVSS | low polyreactivity
QVQLVESGGGLVQAGGSLRLSCAASGYIFGRNARGWYRQAQGKERELVAVISSRGSRTYYADSVKGRYTISRDNAKNTVYLQMNSLKPEDTAVYYCNAVMWWDWEYDFYYWGQGNQVTVSS | high polyreactivity
QVQLVESGGGLVQAGGSLRLSCAASGYIFGVYAMGWYRQAPGKERELVARITSGGSTNYADSVKGRFTISRDNAKNTVYLQMNSLKPEDTAVYYCAAAVGNTDREYDYWGQGTQVTVSS | low polyreactivity
QVQLVESGGGLVQAGGSLRLSCAASGYIFGWYTMGWYRQAPGKEREFVASISNSDASTYYADSVKGRFTISRDNAKNTVYLQMNSLKPEDTAVYYCAADTTYWHWIYYYWGQGTQVTVSS | low polyreactivity
QVQLVESGGGLVQAGGSLRLSCAASGYIFGYNTMGWYRQAPGKERELVAAISKSGGRTYYADSVKGRFTISRDNAKNTVYLQMNSLKPEDTAVYYCAADGWSGKLRYTRYDYWGQGTQVTVSS | high polyreactivity
QVQLVESGGGLVQAGGSLRLSCAASGYIFHLYGMGWYRQAPGKERELVARISYRGGSTYYADSVKGRFTISRDNAMKTVYLQRNSLKPEETAVYYCAAYRRQHIIYNYWGQGTQVSVSS | high polyreactivity
QVQLVESGGGLVQAGGSLRLSCAASGYIFHNYAMGWYIQAPGKERELVAAITRSAGRTYYADSVKGRFTISRDNAKNTVYLQMNSLKPEDTAVYYCNARYGGRFYYCGQGTQVTVSS | high polyreactivity
QVQLVESGGGLVQAGGSLRLSCAASGYIFISYAMGWYRQAPGKEREFVAAITGDGGSTYADSVKGRFSISRDNAKNTVYLQMNSLKPEDTAVYYCAVDGYGGEADYEYDHCGQGTQVTVSS | low polyreactivity
QVQLVESGGGLVQAGGSLRLSCAASGYIFITYAMGWYRQAPGKERELVAAISRRGGRTYYADSVKGRFTISRDNAKNTVYLQMNSLKPEDTAVYYCAADPATSVYGGLNYWGQGTQVTVSS | high polyreactivity
QVQLVESGGGLVQAGGSLRLSCAASGYIFKVNSMGWYRPAPGKERELDADISSNSGSTRYADSVKARFTISRDNAKNTVYLQMNSLKQDDTAVYYCAADGRYWVKPGSPWDRSRYDYWGQGTQVTVSS | low polyreactivity
QVQLVESGGGLVQAGGSLRLSCAASGYIFLGYAMGWYRQAPGKERELVAAISSRGGSTYYADSVKGRFTISRDNAKNTVYLQMNSLKPEDTAVYYCAAYRFSDRAAYGYYDRHYYWGQGTQVTVSS | high polyreactivity
QVQLVESGGGLVQAGGSLRLSCAASGYIFLPNTMGWYRQAPGKERELVAVISKSGTSTYYADSVKGRFTISRDNAKNTVYLQMNSLKPEDTAVYYCNRVYRLTAYGYDYWGQGTQVTLSS | high polyreactivity
QVQLVESGGGLVQAGGSLRLSCAASGYIFNRYVMGWYRQAPGKERELVAAITWRGGTTYADSVKGRFTISRDNAKNTVYLLMNSLKPEDTAVYYCAARRYPFEYDYWGQGTQVTVSS | high polyreactivity

Sequence | polyreactivity (PSR sort gate)
QVQLVESGGGLVQAGGSLRLSCAASGYIFNSNTMGWYRPAPGKERELVAAITSSGGRTNYADSVKGRFTISRDNAKNTVYLQMNSLKPEDTAVYYCATRVYYRAGRYKYDYWGQGTQVTVSS | high polyreactivity
QVQLVESGGGLVQAGGSLRLSCAASGYIFPAYAMGWYRQAPGKERELVAAISWSTGSTYYADSVKGRFTISRDNAKNTVYLQMNSLKPEDTAVYYCAAGRPRRVPDHWYIYYYWGQGTQVTVSS | low polyreactivity
QVQLVESGGGLVQAGGSLRLSCAASGYIFPTYAMGWYRQEPGKERELVAAISISGGDTYYADSVKGRFTISRDNAKNTVYLQMNSLKPEDTAVYYCAAVKYETYRYNYDYWGQGTQVTVSS | high polyreactivity
QVQLVESGGGLVQAGGSLRLSCAASGYIFPWYDMGWYRQAPGKERELVAAISWSGGSTYSADSVKGRFTISRDNAKNTVDLQMNSLKPEDTAVYYCAAYLSHYATRYGYWGHGTQVTVSS | high polyreactivity
QVQLVESGGGLVQAGGSLRLSCAASGYIFPYNAMGWYRQAPGKERELVAAISASGGTTYYADSVKGRFTISRDNAKNTVYLQMNSLKPEDTAVYYCAASFAVTSGHHYEYWGQGTQVTVSS | high polyreactivity
QVQLVESGGGLVQAGGSLRLSCAASGYIFPYYTMGWYRQAPGKERELVAAITIGGSTYYADSVKGRFTISRDNAKNTVYLKMNSLKPEDTAVYYCAAKYYDYLYRYIMEYWGQGTQVTVSS | low polyreactivity
QVQLVESGGGLVQAGGSLRLSCAASGYIFQPYAMGWYRQAPGKERELVAAISWRGGTTYYADSVKGRFTISRDNAKITVYLQMNSLKPEDTAVYDCAKDYYYGLDHYGYWGQGTQVTVSS | low polyreactivity
QVQLVESGGGLVQAGGSLRLSCAASGYIFRLYAMGWYRQAPGKERELVATITASGGTYYADSVKGRFTISRDNAKNTVYLQMNSLKPEDTAVYYCAAAKLRRLSRVRYGYWGQGTQVTVSS | high polyreactivity
QVQLVESGGGLVQAGGSLRLSCAASGYIFRQNAMGWYRQAPGKERELVAAITWSGGSTYYADSVKGRFTISRDNAKNTVYLQMNSLKPEDTAVYYCNAYSYVAIRDGGDYWGQGTQVTVSS | low polyreactivity
QVQLVESGGGLVQAGGSLRLSCAASGYIFRRYAMGWYRQAPGKERELVAAISKSGVSTYYADSVKGRFTISRDNAKNTVYLQMNSLKPEDTAVYYCAASSYTWGEDYWGQGTQVTVSS | high polyreactivity
QVQLVESGGGLVQAGGSLRLSCAASGYIFRSYAMGWYRQAPGKERELVAAITRSGGSTYYADSVKGRFTISRDNAKNTVYLQMNSLKPEDTAVYYCAVLPRGSNGMDYWGQGTQVTVSS | low polyreactivity
QVQLVESGGGLVQAGGSLRLSCAASGYIFRYNAMGWYRQAPGKERELVAAIRATGGSTYYADSVKGRFTISRDNAKNTVSLQMNSLKPEDTAVYYCNAGGQGRTYRYYYWGQGTQVTVSS | high polyreactivity
QVQLVESGGGLVQAGGSLRLSCAASGYIFRYYAMGWYRQAPGKERELVAAISWNGGRTYYADSVKGRFTISRDNAKNTVYLQMNSLKPEDTAVYYCAARYWGDYFTEMNYWGQGTQVTVSS | high polyreactivity
QVQLVESGGGLVQAGGSLRLSCAASGYIFRYYAMGWYRQAPGKERELVAAISWNGGRTYYADSVKGRFTISRDNAKNTVYLQMNSLKPEDTAVYYCNTYWDGAREYDYWGQGTQVTVSS | high polyreactivity
QVQLVESGGGLVQAGGSLRLSCAASGYIFSGYAMGWYRQAPGKERELVAAISSSGGRTYYADSVKGRFTISRDNAKNTVYLQMNSLKPEDTAVYYCAADAVYYHFDYWGQGTQVTVSS | high polyreactivity
QVQLVESGGGLVQAGGSLRLSCAASGYIFSGYAMGWYRQAPGKERELVAAISSSGGRTYYADSVKGRFTISRDNAKNTVYLQMNSLKPEDTAVYYCAARIRTVAHVDYDYWGQGTQVTVSS | high polyreactivity
QVQLVESGGGLVQAGGSLRLSCAASGYIFSVYAMGWYRQAPGKERELVAAISSGGSTYYADSVKGRFTISRDNAKNTVYLQMNSLKPEDTAVYYCAAESEYVYWYYVDYDYWGQGTQVTVSS | high polyreactivity
QVQLVESGGGLVQAGGSLRLSCAASGYIFSYNAMGWYRQAPGKERELVAAITASGGGTYYADSVKGRFTISRDNAKNTVYLQMNSLKPEDTAVYYCAADFNDHYYWYGQDYDYWGQGTQVTVSS | low polyreactivity
QVQLVESGGGLVQAGGSLRLSCAASGYIFTYYAMGWYRQAPGKERELVAAISGSDGNTYYADSVKGRFTISRDNAKKTDYLEMISLKPEDTAVYYCAKSGGLTFRSQRYDYWGQGTQVNVSS | low polyreactivity
QVQLVESGGGLVQAGGSLRLSCAASGYIFVPYAMGWSRQAPGKERELVAAISRGGNTNYADSVKGRFTISRDNAKNTVYLQMNSLKPEDTAVYYCNADLVQYWGRRRWYDYWGQGTQVTVSS | low polyreactivity
